This note sets out measurements from paper PMC5472190.

The target in experiment [1] is triplex of the HSV-1 capsid (herpes simplex virus 1, strain F). The experiment can be described thus: cryo-EM structure; icosahedral reconstruction of isolated PEVs (123 particles), projection matching from a starting map of in vitro-matured B-capsids that lack CCSC and pUL35; ~2 nm around the capsid shell, ~3.5 nm for the whole particle.
For experiment [2], the target named is nuclear egress complex (NEC), heterodimer of pUL31 and pUL34 (herpes simplex virus 1, strain F) (UniProt P10215). The experiment can be described thus: cryo-electron tomography; tomograms of nuclear sacs from US3-null-infected Vero cells; 188 ring subtomograms, rotational symmetry by ROTASTAT, subtomogram averaging.

In turn, “heterodimeric pUL17/pUL25 complex, C-capsid-specific complex (CCSC) (from UniProt P10201 1-703; P10209 1-580)” gave an occupancy in experiment [1] of 100%.

As to “nuclear egress complex (NEC), heterodimer of pUL31 and pUL34 (from UniProt P10215 1-306; P10218 1-275)”, in experiment [2], the stoichiometry N was 7.

Broadly, the stoichiometry N is the number of molecules, sites or subunits per partner or assembly.
